Measured values: paper PMC3558936 (Neuron, 2013)

Molecular target: the molecule itself
Assay: FRET or BRET

B1: Ciona intestinalis Hv1 (Ci-Hv1) D171A/S242C channel (natural protein, UniProt Q1JV40 1-342, looked up)
chain: MEGDNCNKSRHKSHNMINPNYASVRCTQPLPSVIQLRSRNKMIGITEDPSSDSEPVSSNQPLLLTNLSYEVHTFNDNNNHERPAPQEQSTQNTMISMQSEQKSDRFTASNLGMFQYMKFEIGEDGDDHEEEAILTNREKLRHILHSKPIHVAIIVLVVLDSFLVVGELLIALKVIIVPHGNPAPEILHGFSLSILSIFMVEIALKIIADHRHFIHHKVEVLDAVVVVISFGVDIALIFVGECEALAAIGLLVILRLWRVFRIINGIIVTVKTKADDRVHEIKKKNSELELQIHNLEEKLSQKEQDMSRLHEILRCNNIDIPPTVPLTTSVQIHSTTTASADV
modifications: Alexa488-maleimide (donor) or TMR-MTS (acceptor) on the introduced cysteine 242
stoichiometry N: 2
